# In IntAct's records for PubMed 19276109:
# B1: Protein ABSCISIC ACID-… 5 (Arabidopsis thaliana (Mouse-ear cress)), Q9SJN0 (parent)
# chain: MVTRETKLTSEREVESSMAQARHNGGGGGENHPFTSLGRQSSIYSLTLDEFQHALCENGKNFGSMNMDEFLVSIWNAEENNNNQQQAAAAAGSHSVPANHNGFNNNNNNGGEGGVGVFSGGSRGNEDANNKRGIANESSLPRQGSLTLPAPLCRKTVDEVWSEIHRGGGSGNGGDSNGRSSSSNGQNNAQNGGETAARQPTFGEMTLEDFLVKAGVVREHPTNPKPNPNPNQNQNPSSVIPAAAQQQLYGVFQGTGDPSFPGQAMGVGDPSGYAKRTGGGGYQQAPPVQAGVCYGGGVGFGAGGQQMGMVGPLSPVSSDGLGHGQVDNIGGQYGVDMGGLRGRKRVVDGPVEKVVERRQRRMIKNRESAARSRARKQAYTVELEAELNQLKEENAQLKHALAELERKRKQQYFESLKSRAQPKLPKSNGRLRTLMRNPSCPL
# Variants of: B1
# Settings: with sumo1_arath SUMO1, P55852
# Chain of sumo1_arath SUMO1, P55852 (P55852 whole entry): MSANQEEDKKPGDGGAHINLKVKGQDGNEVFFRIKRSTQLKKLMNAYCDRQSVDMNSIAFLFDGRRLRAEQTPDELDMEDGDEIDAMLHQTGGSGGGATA
row,Variant,effect of a mutation on the interaction
1,K391R,disrupting interaction
